Target: purified human C4, P0C0L4
Sequence (P0C0L4 whole entry, looked up): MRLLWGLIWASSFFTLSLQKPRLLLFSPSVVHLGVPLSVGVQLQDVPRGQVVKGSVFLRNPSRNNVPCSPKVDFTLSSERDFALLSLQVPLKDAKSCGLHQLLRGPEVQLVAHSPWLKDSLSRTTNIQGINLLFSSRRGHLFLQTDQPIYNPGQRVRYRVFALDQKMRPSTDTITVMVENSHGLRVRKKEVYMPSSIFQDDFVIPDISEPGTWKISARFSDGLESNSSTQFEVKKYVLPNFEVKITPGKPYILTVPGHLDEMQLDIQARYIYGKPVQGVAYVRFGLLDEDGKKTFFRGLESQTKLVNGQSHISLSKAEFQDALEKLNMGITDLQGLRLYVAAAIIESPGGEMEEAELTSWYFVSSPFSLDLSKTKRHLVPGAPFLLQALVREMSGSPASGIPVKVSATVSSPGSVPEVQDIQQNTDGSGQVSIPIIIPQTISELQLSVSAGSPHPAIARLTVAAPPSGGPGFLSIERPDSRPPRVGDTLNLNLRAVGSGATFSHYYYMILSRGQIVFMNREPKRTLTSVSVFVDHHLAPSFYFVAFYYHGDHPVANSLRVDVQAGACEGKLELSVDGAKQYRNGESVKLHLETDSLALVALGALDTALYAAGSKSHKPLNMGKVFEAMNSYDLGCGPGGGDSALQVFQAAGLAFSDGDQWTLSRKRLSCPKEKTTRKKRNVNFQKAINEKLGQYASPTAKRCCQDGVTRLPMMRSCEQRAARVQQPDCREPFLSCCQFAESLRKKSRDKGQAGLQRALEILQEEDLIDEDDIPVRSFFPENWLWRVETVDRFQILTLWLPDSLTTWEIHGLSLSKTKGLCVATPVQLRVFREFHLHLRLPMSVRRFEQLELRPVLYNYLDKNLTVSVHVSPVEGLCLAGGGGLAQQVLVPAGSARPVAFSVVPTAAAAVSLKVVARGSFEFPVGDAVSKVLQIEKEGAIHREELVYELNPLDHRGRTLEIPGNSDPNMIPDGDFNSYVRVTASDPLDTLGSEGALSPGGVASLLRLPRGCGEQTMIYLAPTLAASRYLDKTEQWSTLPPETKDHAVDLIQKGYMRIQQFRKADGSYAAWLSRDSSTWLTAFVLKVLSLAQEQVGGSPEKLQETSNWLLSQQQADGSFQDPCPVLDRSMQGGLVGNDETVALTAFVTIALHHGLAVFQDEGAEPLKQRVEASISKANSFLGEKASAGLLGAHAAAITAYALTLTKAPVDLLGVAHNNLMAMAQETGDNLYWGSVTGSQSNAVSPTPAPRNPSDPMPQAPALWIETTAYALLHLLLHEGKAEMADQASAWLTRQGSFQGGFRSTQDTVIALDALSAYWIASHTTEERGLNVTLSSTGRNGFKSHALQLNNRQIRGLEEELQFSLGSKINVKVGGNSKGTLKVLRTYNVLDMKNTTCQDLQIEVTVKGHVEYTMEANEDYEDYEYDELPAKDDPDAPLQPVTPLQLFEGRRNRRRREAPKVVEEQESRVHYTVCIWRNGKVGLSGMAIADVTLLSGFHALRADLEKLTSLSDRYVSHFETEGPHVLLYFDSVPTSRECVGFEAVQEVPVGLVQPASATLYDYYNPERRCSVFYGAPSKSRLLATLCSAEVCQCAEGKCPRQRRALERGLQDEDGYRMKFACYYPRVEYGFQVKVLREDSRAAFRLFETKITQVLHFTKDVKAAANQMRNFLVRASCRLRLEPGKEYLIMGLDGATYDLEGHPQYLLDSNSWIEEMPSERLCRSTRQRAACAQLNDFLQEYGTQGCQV

Protein	lectin pathway-dependent C4 activation (C4 cleavage assay, C4b deposition on mannan) in pooled MASP-2-/- mouse serum
functionally active murine recombinant MASP-2 protein (protein) SKWPEPVFGRLVSPGFPEKYADHQDRSWTLTAPPGYRLRLYFTHFDLELSYRCEYDFVKLSSGTKVLATLCGQESTDTEQAPGNDTFYSLGPSLKVTFHSDYSNEKPFTGFEAFYAAEDVDECRVSLGDSVPCDHYCHNYLGGYYCSCRAGYVLHQNKHTCSALCSGQVFTGKSGYLSSPEYPQPYPKLSSCTYSIRLEDGFSVILDFVESFDVETHPEAQCPYDSLKIQTDKGEHGPFCGKTLPPRIETDSHKVTITFATDESGNHTGWKIHYTSTARPCPDPTAPPNGSISPVQAIYVLKDRFYVFCKTGFELLQGSVPLKSFTAVCQKDGSWDRPMPECS	restored lectin pathway-dependent C4 activation in a protein concentration dependent manner
catalytically inactive murine MASP-2A recombinant protein (protein) SKWPEPVFGRLVSPGFPEKYADHQDRSWTLTAPPGYRLRLYFTHFDLELSYRCEYDFVKLSSGTKVLATLCGQESTDTEQAPGNDTFYSLGPSLKVTFHSDYSNEKPFTGFEAFYAAEDVDECRVSLGDSVPCDHYCHNYLGGYYCSCRAGYVLHQNKHTCSALCSGQVFTGKSGYLSSPEYPQPYPKLSSCTYSIRLEDGFSVILDFVESFDVETHPEAQCPYDSLKIQTDKGEHGPFCGKTLPPRIETDSHKVTITFATDESGNHTGWKIHYTSTARPCPDPTAPPNGSISPVQAIYVLKDRFYVFCKTGFELLQGSVPLKSFTAVCQKDGSWDRPMPECS	did not restore C4 activation
